According to the supplement of paper PMC9732359:
± gives the uncertainty stated by the source.

Test: protein stability index of a GFP-peptide fusion (yeast GPS) (PSI 1-4); higher = more stable; sorted into four equal gates, so the index is relative within each strain
Outline: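 For each peptide, the protein stability index sums the read frequency in every gate after multiplying it by the gate number. Read frequencies came from plasmids that were PCR-amplified from each gate and Illumina-sequenced, with reads assigned to strains by barcodes. The gates were four equal bins of GFP/Cherry fluorescence ratio applied to mid-log yeast in leucine-free medium carrying a pooled library of tiled 17-residue yeast protein peptides fused downstream of GFP on a Cherry-expressing plasmid.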

Row | Sequence | protein stability index (doa10∆) | protein stability index (pdr5∆) | protein stability index (san1∆) | protein stability index (ubr1∆)
1 | GRSDSNTEEKAELQSNL [YGL100W/SEH1] | 1.61 ± 0.037 | 1.64 ± 0.051 | 1.4 ± 0.14 | 1.52 ± 0.039
2 | IWLKDFIAVGQILPESQ [SIR3] |  | 2.37 ± 0.28 |  | 
3 | DNVDFILSNVDLAMANS [RPB3] | 3.07 ± 0.057 | 3.08 ± 0.054 | 3.12 ± 0.064 | 2.97 ± 0.05
4 | VSVRKHLERNRKDKDAK [RPS13] | 3.38 ± 0.16 | 3.31 ± 0.095 |  | 3.28 ± 0.099
5 | GSQKTFEIDDEHRIRVF [RPS6A] | 1.75 ± 0.089 | 2.76 ± 0.14 | 1.97 ± 0.16 | 2.5 ± 0.21
6 | TPLTENILIASLMDTLI [YCG1] | 1.86 ± 0.049 | 1.7 ± 0.04 | 2.07 ± 0.069 | 2.35 ± 0.035
7 | KSEFDDLSLNIHPIPSV [YMR129W/POM152] | 2.64 ± 0.043 | 2.92 ± 0.039 | 2.75 ± 0.032 | 2.76 ± 0.032
8 | AISTGAKIDVMLTIARL [RPN7] | 3.31 ± 0.16 | 3.23 ± 0.099 | 3.33 ± 0.054 | 3.38 ± 0.075
9 | TLEDKFLLLAVNKYGLR [ISW2] | 2.31 ± 0.058 | 2.15 ± 0.058 | 1.9 ± 0.11 | 2.29 ± 0.049
10 | ELDEHTTQIDLFRIFSM [BRR2] | 2.25 ± 0.1 | 1.56 ± 0.1 | 1.61 ± 0.15 | 1.22 ± 0.059
11 | KMELVYVSDSDDSSSDN [SIR4] | 2.7 ± 0.059 | 2.68 ± 0.058 | 2.47 ± 0.078 | 2.59 ± 0.067
12 | KNVNIEDITEPKPDKPS [ESC2] | 2.96 ± 0.094 | 3.1 ± 0.099 | 2.51 ± 0.1 | 2.94 ± 0.13
13 | LVAKFLYPIFLLDDKKL [YJR042W/NUP85] | 1.49 ± 0.034 | 1.29 ± 0.033 | 1.16 ± 0.073 | 1.26 ± 0.027
14 | IKQTFKNDLFVIWSEDN [RPO21] | 2.13 ± 0.057 | 2.32 ± 0.063 | 2.31 ± 0.058 | 2.36 ± 0.056
15 | NDKSEVLKVYSMINNSN [SRB8] | 2.9 ± 0.077 | 2.91 ± 0.07 | 2.86 ± 0.075 | 2.63 ± 0.071
16 | ALSLLYHLLNYDPIKRI [SSN3] | 2.56 ± 0.073 | 2.05 ± 0.051 | 2.39 ± 0.072 | 2.19 ± 0.039
17 | QVNIRFLLHNSEIIDTN [SRB8] | 2.17 ± 0.059 | 2.71 ± 0.057 | 2.79 ± 0.055 | 2.7 ± 0.04
18 | QSSEDVITIKSRIRVKI [RPB7] | 2.4 ± 0.11 | 2.41 ± 0.075 | 2.51 ± 0.078 | 3 ± 0.12
19 | EEEYDETHETNISNAKL [YAR002W/NUP60] | 3.35 ± 0.073 | 3.21 ± 0.09 | 3.44 ± 0.087 | 3.31 ± 0.065
20 | VNIVEKDGAKFIEVRNF [RPL9A] | 3.38 ± 0.19 |  | 3.02 ± 0.2 | 1.71 ± 0.24
21 | IRAQNFKSALANLEDII [RRP6] | 1.89 ± 0.06 | 1.75 ± 0.062 | 2.29 ± 0.091 | 1.41 ± 0.047
22 | FVSYFGKQIKSTIYNWG [YML103C/NUP188] | 1.67 ± 0.11 | 1.39 ± 0.071 | 1.47 ± 0.099 | 1.6 ± 0.066
23 | NSTSKNTLLQQQNYSKV [SWI1] | 2.33 ± 0.067 | 2.86 ± 0.12 | 2.08 ± 0.078 | 2.68 ± 0.06
24 | EALLRSLLDAEEERRKK [SNF2] | 2.87 ± 0.15 | 2.62 ± 0.094 | 2.27 ± 0.17 | 
25 | EWYLSHLCSGILSSVNR [SRB8] | 1.41 ± 0.076 | 1.55 ± 0.079 | 1.25 ± 0.095 | 1.63 ± 0.044

Row | Sequence | protein stability index (doa10∆) | protein stability index (pdr5∆) | protein stability index (san1∆) | protein stability index (ubr1∆)
26 | FLQRVRVWEYRQKNVIH [RPL15A] | 1.77 ± 0.24 | 1.72 ± 0.085 |  | 2.02 ± 0.19
27 | ENYDDTELRQLFQENDD [DSN1] | 2.23 ± 0.072 | 2.63 ± 0.077 | 2.6 ± 0.096 | 2.55 ± 0.13
28 | VELTYSLNNSDSLISGV [BRR2] | 2.73 ± 0.12 | 2.98 ± 0.085 | 3.14 ± 0.088 | 3.12 ± 0.051
29 | PPGTGKTLCARAVANRT [RPT1] | 1.26 ± 0.1 | 1.25 ± 0.19 | 1.37 ± 0.18 | 1.27 ± 0.12
30 | VISMFVLPIFTTVFFSR [YML031W/NDC1] | 1.38 ± 0.046 | 1.16 ± 0.065 | 1.17 ± 0.11 | 1.16 ± 0.057
31 | ELLSKYKEQIIQGFYWA [SNU114] | 2.99 ± 0.073 | 2.4 ± 0.067 | 2.47 ± 0.077 | 2.17 ± 0.085
32 | FVDENTFQRVCQYMVAC [RPN1] | 3.09 ± 0.074 | 2.59 ± 0.072 | 2.77 ± 0.095 | 2.99 ± 0.091
33 | PSMKKIKIEPSADDDVN [SIR3] | 1.95 ± 0.077 | 2.63 ± 0.1 | 2.75 ± 0.091 | 2.73 ± 0.069
34 | KQYDNRITKSNEKSQAE [LRP1] | 2.91 ± 0.087 | 2.91 ± 0.11 | 2.77 ± 0.075 | 3.02 ± 0.037
35 | ETEFPPFREFLQVLIDQ [ECM29] | 3.46 ± 0.19 | 3.45 ± 0.16 | 3.2 ± 0.095 | 3.27 ± 0.12
36 | LKTVIILSSLYLLSIWV [CYT1] | 2.12 ± 0.11 | 1.45 ± 0.092 | 1.24 ± 0.15 | 1.17 ± 0.056
37 | VVDTEETATLIMNELYR [SMC3] | 3.02 ± 0.086 | 3.17 ± 0.11 | 2.79 ± 0.1 | 3.03 ± 0.096
38 | RHHWQYTKASLAKERQK [SSN8] | 1.74 ± 0.072 | 1.66 ± 0.07 | 1.4 ± 0.14 | 2.14 ± 0.064
39 | RSALEKGSRFISTLQVK [RPB2] | 1.47 ± 0.13 | 1.23 ± 0.087 | 1.67 ± 0.19 | 1.6 ± 0.088
40 | PDKDYLLSIPISCPLIG [FAS1] | 1.28 ± 0.19 | 1.64 ± 0.13 | 1.25 ± 0.19 | 1.07 ± 0.077
41 | SVDLEKLAFGLTKLNED [TAF14] | 3.54 ± 0.19 | 3.45 ± 0.17 | 3.6 ± 0.092 | 3.61 ± 0.12
42 | ARDLFLKIYYKEEFSSD [RRI2] |  | 2.44 ± 0.15 | 2.03 ± 0.22 | 2.9 ± 0.1
43 | FVCRGMAATQTIEQSPR [ECM29] | 1.7 ± 0.063 | 1.93 ± 0.062 | 1.58 ± 0.23 | 1.56 ± 0.054
44 | QEASKQYTKDEQFYTKD [RPN2] | 3.41 ± 0.085 | 3.3 ± 0.086 | 3.19 ± 0.083 | 3.25 ± 0.056
45 | NELTDAIALAVRLGEED [RPN1] | 2.98 ± 0.096 | 3.27 ± 0.096 |  | 2.7 ± 0.095
46 | DDLERLKKIRAHRGIRH [RPS18A] | 1.47 ± 0.18 | 1.31 ± 0.1 | 1.21 ± 0.18 | 1.31 ± 0.18
47 | ATGHRVLIFFQMTQIMD [SNF2] | 1.84 ± 0.082 | 2.51 ± 0.069 | 2.72 ± 0.094 | 2.64 ± 0.13
48 | KTAYSIYLSQNELTDAI [RPN1] | 2.48 ± 0.037 | 2.28 ± 0.038 | 2.71 ± 0.037 | 2.08 ± 0.023
49 | PLQSMDIEQLEYSRDCF [RPB3] | 3.16 ± 0.074 | 3.17 ± 0.068 | 3.21 ± 0.08 | 2.93 ± 0.11
50 | SKKISNTAAALVSLLDE [YAR002W/NUP60] | 2.9 ± 0.095 | 2.67 ± 0.086 | 2.92 ± 0.052 | 2.78 ± 0.07
